Measured values published in US20210107998A1 (Boehringer Ingelheim, published 2021).

T1: Recombinant human IL-23 (human, UniProt P29460 23-328)
T1 sequence 1: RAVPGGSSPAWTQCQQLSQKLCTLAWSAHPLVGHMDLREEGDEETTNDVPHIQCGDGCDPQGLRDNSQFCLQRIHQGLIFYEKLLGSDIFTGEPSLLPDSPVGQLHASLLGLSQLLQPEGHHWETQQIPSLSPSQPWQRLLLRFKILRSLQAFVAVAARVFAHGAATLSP
T1 sequence 2: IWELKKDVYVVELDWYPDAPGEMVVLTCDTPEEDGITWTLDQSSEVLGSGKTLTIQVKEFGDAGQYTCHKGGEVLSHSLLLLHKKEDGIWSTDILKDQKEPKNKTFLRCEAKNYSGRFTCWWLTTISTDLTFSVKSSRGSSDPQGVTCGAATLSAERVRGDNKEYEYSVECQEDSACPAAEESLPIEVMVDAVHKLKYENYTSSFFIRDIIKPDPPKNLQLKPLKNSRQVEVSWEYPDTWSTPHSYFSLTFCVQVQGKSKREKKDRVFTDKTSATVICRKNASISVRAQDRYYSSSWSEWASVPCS

T2: Linked human IL-23 (Boehringer Ingelheim Pharmaceuticals, Inc.) (human, UniProt P29460 23-328)
T2 sequence 1: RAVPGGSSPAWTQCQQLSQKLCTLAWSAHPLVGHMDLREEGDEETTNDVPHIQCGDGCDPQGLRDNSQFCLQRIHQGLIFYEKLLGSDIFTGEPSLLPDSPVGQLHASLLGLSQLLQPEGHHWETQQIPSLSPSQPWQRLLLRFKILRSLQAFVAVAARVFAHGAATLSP
T2 sequence 2: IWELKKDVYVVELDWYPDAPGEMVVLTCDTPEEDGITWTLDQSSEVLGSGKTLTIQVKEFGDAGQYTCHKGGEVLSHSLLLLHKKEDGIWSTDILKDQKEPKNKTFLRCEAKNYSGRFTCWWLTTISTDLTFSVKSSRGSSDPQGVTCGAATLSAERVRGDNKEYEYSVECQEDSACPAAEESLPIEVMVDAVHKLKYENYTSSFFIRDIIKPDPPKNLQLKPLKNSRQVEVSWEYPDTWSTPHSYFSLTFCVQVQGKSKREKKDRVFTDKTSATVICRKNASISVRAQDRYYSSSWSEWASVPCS


Key:
[1] = target: T3, Recombinant human BAFF trimer (Boehringer Ingelheim Pharmaceuticals, Inc.) (human, UniProt Q9Y275 134-285, limits assumed); assay: cell-based or functional assay
[2] = target: T3, Recombinant human BAFF trimer …; assay: cell-based or functional assay; remark: listed apart in the source
human BAFF [3] = target: T4, human BAFF (human, UniProt Q9Y275 134-285, limits assumed); assay: cell-based or functional assay
[4] = target: membrane-bound human BAFF on fixed CHO-K1 cells (human, UniProt Q9Y275 1-285); assay: cell-based or functional assay
[5] = target: Recombinant human BAFF 60mer (Boehringer Ingelheim Pharmaceuticals, Inc.) (human, UniProt Q9Y275 134-285, limits assumed); assay: cell-based or functional assay
[6] = target: Recombinant cynomolgus BAFF trimer (Boehringer Ingelheim Pharmaceuticals, Inc.) (cynomolgus, UniProt A0A2K5V2X4 134-285); assay: cell-based or functional assay
Recombinant human IL-23 [7] = target: T1, Recombinant human IL-23; assay: cell-based or functional assay
[8] = target: T2, Linked human IL-23 (Boehringer …); assay: SPR (ProteOn XPR36), compound captured on goat anti-human IgG Fc, antigen injected
Description: (§1) SPR experiments were performed on a ProteOn XPR36 instrument (Bio Rad). A GLM chip was preconditioned with sequential injections of 60 sec of 0.5% SDS, 50 mM NaOH, and 100 mM HCl at a flow rate of 30 μl/min both vertical and horizontal directions.
(§2) The preconditioned GLM chip was then activated by an injection of EDC (76.7 mg/ml) and sulfo-NHS (21.7 mg/ml) mixture with ratio of 1:1 in 6 horizontal channels. Goat-anti-human IgG (GAHA) Fc gamma (Invitrogen) at a concentration of 30 μg/ml in 10 mM, pH 5.0 sodium acetate buffer was immobilized to 8,000 resonance units on the activated GLM chip in 6 horizontal channels. The chip was finally deactivated with 1 M ethanolamine HCl in 6 horizontal channels. The prepared GAHA chip was rotated to vertical direction to capture test compounds, over 5 vertical channels and the last channel was used as a column reference. The captured chip was then rotated again to the horizontal direction for binding. […] The dissociation was allowed for 2 hour. The GAHA surface was regenerated using short pulse injection (18 seconds) of 0.85% phosphoric acid (Bio Rad) at a flow rate of 100 μl/min both horizontal and vertical directions after 10 min association and 2 hr dissociation. The regenerated GAHA was ready for another binding cycle.

cynomolgus IL-23 [9] = target: T5, cynomolgus IL-23 (cynomolgus, UniProt H6WS56 20-189); assay: as above
Description: as §1, §2

human BAFF [10] = target: T4, human BAFF; assay: as above
Description: as §1, §2

cynomolgus BAFF = target: T6, cynomolgus BAFF (cynomolgus, UniProt A0A2K5V2X4 134-285); assay: as above
T6 construct: construct not described
Description: as §1, §2

human BAFF [11] = target: T4, human BAFF; assay: BLI (Octet RED96, streptavidin tips), compound incubated 48 h at 37 C in whole blood vs kinetic buffer
Description: (§3) A whole blood interference assay was developed on an Octet RED96 to detect the effects of non-specific binding or off-target binding for compounds in the presence of whole blood (WB). The compound solutions in whole blood and 1× kinetic running buffer (1×kb) were incubated at a temperature of 37° C. for 48 hours. Kinetic measurements for the incubated compound samples were performed with an Octet RED96 equipped with streptavidin (SA) biosensor tips (ForteBio, Menlo Park, Calif.) at 27° C. The ratio of the on-rates/binding signals in buffer and whole blood were reported. A ratio <2 was considered to show no interference.

Recombinant human IL-23 [12] = target: T1, Recombinant human IL-23; assay: as above
Description: as §3

cynomolgus IL-23 [13] = target: T5, cynomolgus IL-23; assay: cell-based or functional assay
Recombinant human IL-23 [14] = target: T1, Recombinant human IL-23; assay: cell-based or functional assay; remark: listed apart in the source

IC50 Geomean, NFkB luciferase reporter, human TACI-CHO cells [1] [pM]	IC90 Geomean, NFkB luciferase reporter, human TACI-CHO cells [1] [pM]	IC50, NFkB luciferase reporter, human BAFFR-CHO cells [2] [pM]	IC90, NFkB luciferase reporter, human BAFFR-CHO cells [2] [pM]	IC50, NFkB luciferase reporter, human BAFFR-CHO cells stimulated with fixed human BAFF CHO-K1 cells [4] [pM]	IC90, NFkB luciferase reporter, human BAFFR-CHO cells stimulated with fixed human BAFF CHO-K1 cells [4] [pM]	IC50, NFkB luciferase reporter, human BAFFR-CHO cells [5] [pM]	IC90, NFkB luciferase reporter, human BAFFR-CHO cells [5] [pM]	IC50 Geomean, NFkB luciferase reporter, human BAFFR-CHO cells [6] [pM]	IC90 Geomean, NFkB luciferase reporter, human BAFFR-CHO cells [6] [pM]	IC50, STAT3-luciferase reporter in DB lymphoblast B cells (Recombinant human IL-23 [7]) [pM]	IC90, STAT3-luciferase reporter in DB lymphoblast B cells (Recombinant human IL-23 [7]) [pM]	Kd [8] [nM]	Kd (cynomolgus IL-23 [9]) [nM]	Kd (human BAFF [10]) [nM]	Kd (cynomolgus BAFF) [nM]	Ratio of binding signal in WB/kinetic buffer (human BAFF [11])	Ratio of binding signal in WB/kinetic buffer (Recombinant human IL-23 [12])	IC50, IL-23-induced mouse IL-17 release from mouse splenocytes (cynomolgus IL-23 [13]) [pM]	IC90, IL-23-induced mouse IL-17 release from mouse splenocytes (cynomolgus IL-23 [13]) [pM]	Binder	further results
241	618	70	417	250	2920	15	38	257	588	–	–	–	–	–	–	–	–	–	–	Control Antibody 3 (anti-BAFF monoclonal antibody) (BAFF (3)) (antibody, V domains shown) VH: QVQLQQWGAGLLKPSETLSLTCAVYGGSFSGYYWSWIRQPPGKGLEWIGEINHSGSTNYNPSLKSRVTISVDTSKNQFSLKLSSVTAADTAVYYCARGYYDILTGYYYYFDYWGQGTLVTVSS VL: EIVLTQSPATLSLSPGERATLSCRASQSVSRYLAWYQQKPGQAPRLLIYDASNRATGIPARFSGSGSGTDSTLTISSLEPEDFAVYYCQQRSNWPRTFGQGTKVEIK	IC50, 3H-thymidine incorporation, primary human B cells stimulated with anti-IgM and hBAFF (human BAFF [3]): 87.3 pM
159	417	43	180	118	1020	6	19	132	191	145	1230	< 0.015	< 0.015	< 0.015	< 0.015	1.2	1.1	155	1310	Compound A (bispecific antibody, human IgG1, kappa, L234A L235A, Made in CHO-S cells) chain 1: DIQMTQSPSSLSASVGDRVTITCKASRDVAIAVAWYQQKPGKVPKLLIYWASTRHTGVPSRFSGSGSRTDFTLTISSLQPEDVADYFCHQYSSYPFTFGSGTKLEIKGGGSGGGGQVQLVQSGAEVKKPGASVKVSCKASGYSFSTFFIHWVRQAPGQGLEWIGRIDPNSGATKYNEKFESRVTMTRDTSISTAYMELSRLRSDDTAVYYCARGEDLLIRTDALDYWGQGTSVTVSSLGGGSGASTKGPSVFPLAPSSKSTSGGTAALGCLVKDYFPEPVTVSWNSGALTSGVHTFPAVLQSSGLYSLSSVVTVPSSSLGTQTYICNVNHKPSNTKVDKRVEPKSCDKTHTCPPCPAPEAAGGPSVFLFPPKPKDTLYITREPEVTCVVVDVSHEDPEVKFNWYVDGVEVHNAKTKPREEQYNSTYRVVSVLTVLHQDWLNGKEYKCKVSNKALPAPIEKTISKAKGQPREPQVYTLPPSREEMTKNQVSLTCLVKGFYPSDIAVEWESNGQPENNYKTTPPVLDSDGSFFLYSKLTVDKSRWQQGNVFSCSVMHEALHNHYTQKSLSLSPG chain 2: DIQMTQSPSSLSASVGDRVSITCKASQNAGIDVAWFQQKPGKAPKLLIYSKSNRYTGVPSRFSGSGSGTDFTLTISSLQPEDFATYYCLQYRSYPRTFGQGTKLEIKGGGSGGGGQVQLVQSGAEVKKPGSSVKVSCKASGYTFTDQTIHWMRQAPGQGLEWIGYIYPRDDSPKYNENFKGKVTITADKSTSTAYMELSSLRSEDTAVYYCAIPDRSGYAWFIYWGQGTLVTVSSLGGGSGRTVAAPSVFIFPPSDEQLKSGTASVVCLLNNFYPREAKVQWKVDNALQSGNSQESVTEQDSKDSTYSLSSTLTLSKADYEKHKVYACEVTHQGLSSPVTKSFNRGEC	IC50, IL-23-induced mouse IL-17 release from mouse splenocytes (Recombinant human IL-23 [14]): 146 pM; IC90, IL-23-induced mouse IL-17 release from mouse splenocytes (Recombinant human IL-23 [14]): 1650 pM
163	436	34	172	104	938	4	12	118	248	128	3090	< 0.015	< 0.015	< 0.015	< 0.015	1.3	1.7	97	1550	Compound D (bispecific antibody, human IgG4 S228P, kappa, Large chain: IL23A(1) VL - BAFF(6) VH - LGGGSG - IgG4-Pro-YTE; small chain: BAFF(6) VL - IL23A(1) VH - LGGGSG - CL; Tetravalent format) chain 1: DIQMTQSPSSLSASVGDRVTITCKASRDVAIAVAWYQQKPGKVPKLLIYWASTRHTGVPSRFSGSGSRTDFTLTISSLQPEDVADYFCHQYSSYPFTFGSGTKLEIKGGGSGGGGQVQLVQSGAEVKKPGASVKVSCKASGYSFSTFFIHWVRQRPGQGLEWIGRIDPNSGATKYNEKFESKVTLTRDTSISTAYMELSRLRSDDTAVYYCARGEDLLIRTDALDYWGQGTSVTVSSLGGGSGASTKGPSVFPLAPCSRSTSESTAALGCLVKDYFPEPVTVSWNSGALTSGVHTFPAVLQSSGLYSLSSVVTVPSSSLGTKTYTCNVDHKPSNTKVDKRVESKYGPPCPPCPAPEFLGGPSVFLFPPKPKDTLYITREPEVTCVVVDVSQEDPEVQFNWYVDGVEVHNAKTKPREEQFNSTYRVVSVLTVLHQDWLNGKEYKCKVSNKGLPSSIEKTISKAKGQPREPQVYTLPPSQEEMTKNQVSLTCLVKGFYPSDIAVEWESNGQPENNYKTTPPVLDSDGSFFLYSRLTVDKSRWQEGNVFSCSVMHEALHNHYTQKSLSLSLG chain 2: DIQMTQSPSSLSASVGDRVSITCKASQNAGIDVAWFQQKPGKAPKLLIYSKSNRYTGVPSRFSGSGSGTDFTLTISSLQPEDFADYYCLQYRSYPRTFGGGTKLEIKGGGSGGGGQVQLVQSGAEVKKPGSSVKVSCKASGYTFTDQTIHWMRQAPGQGLEWIGYIYPRDDSPKYNENFKGKVTITADKSTSTAYMELSSLRSEDTAVYYCAIPDRSGYAWFIYWGQGTLVTVSSLGGGSGRTVAAPSVFIFPPSDEQLKSGTASVVCLLNNFYPREAKVQWKVDNALQSGNSQESVTEQDSKDSTYSLSSTLTLSKADYEKHKVYACEVTHQGLSSPVTKSFNRGEC	IC50, IL-23-induced mouse IL-17 release from mouse splenocytes (Recombinant human IL-23 [14]): 105 pM; IC90, IL-23-induced mouse IL-17 release from mouse splenocytes (Recombinant human IL-23 [14]): 1700 pM
